Data published in patent publication US7387779B2, “Anti-angiogenic proteins and fragments and methods of use thereof” (Beth Israel Deaconess Medical Center, priority 1998, dated 2008).

Experiments:
C-PAE cells = assay: Cell cycle analysis (propidium iodide, flow cytometry); assay type: cell-based, bovine; conditions: for percentage of cells in G0/G1 phase: bFGF control 53.4%; for G1 (cell cycle arrest assay): Table 4
Experimental: To further evaluate the mechanism of T3 peptide on endothelial cell proliferation, the effect of T3 peptide on cell cycle progression was analyzed. In the growth arrested and contact inhibited cells (0 hour), 4.1% of cells were in S phase. […] This was true even at a maximal dosage of 100 μg/ml. The effect of the T3 peptide was dose-dependent, however, with the percentage of cells in S phase at 21.4% at 10 μg/ml, and 20.5% at 25 μg/ml. The percentage of cells in G0/G1 phase was 88.3% at 0 hour, 53.4% for the bFGF control, and 57.6%, 57.6% and 71.0% for treatments with T1, T6 and T3 peptide, respectively. […] Apoptotic Activity: Peptides T2, T3, T4, T5 and T6 (10 μg/ml concentration) were tested for their effect of viability of C-PAE cells using the MTT assay, as described in Examples 32 and 36 above. The results are shown in FIG. 43D, which is a histogram showing cell viability as measured at OD595 (y-axis), and treatments with the synthetic peptides (x-axis). […] TNF-α (100 ng/ml) was used to serve as a positive control in inducing endothelial cell apoptosis.
The effect of Tumstatin-44-131 and Tum-5-125-C-A on the cell cycle were assayed similarly to Example 4 above. Briefly, C-PAE cells were growth arrested by contact inhibition for 48 hours. The cells, at 10^5 cells per well, were then harvested and plated into a 12-well plate coated with fibronectin in 5% FCS and either recombinant Tumstatin-44-131 or Tum-5-125-C-A. After 21 hours, the cells were harvested and fixed in 70% ice-cold ethanol. The fixed cells were rehydrated a room temperature for 30 minutes in PBS containing 2% FCS and 0.1% Tween-20, centrifuged and resuspended in 0.5 ml of the same buffer. RNase (5 μg/ml) digestion was done at 37° C. for one hour, followed by staining with propidium iodide (5 μg/ml). The cells were then counted using an EPICS XL-MCL flow cytometer (Beckman-Coulter Instruments, Fullerton, Calif., USA).

human αvβ3 protein = target: T1, human αvβ3 protein (Homo sapiens, UniProt P05106+P06756); assay: Competition proliferation assay with soluble αvβ3 protein, C-PAE cells; assay type: cell-based, bovine
T1 construct: purchased CHEMICON Int'l, Temecula, Calif., USA
Experimental: C-PAE cells were plated into 96-well plates as described above for the endothelial cell proliferation assay. Tumstatin at a final concentration of 0.1 μg/ml was incubated with varying concentrations (0, 0.008, 0.08, 0.8, 1.6 and 2.4 μg/ml) of human αvβ3 protein (CHEMICON Int'l, Temecula, Calif., USA) for 30 minutes at room temperature. This mixture was then added into the wells, and incubated for 48 hours. The proliferation assay was then performed using the methylene blue staining method, as described above for the endothelial cell proliferation assay.
The integrin αvβ3 was then investigated for its ability to reverse the anti-proliferative effects of Tumstatin and Tum-2. Tumstatin and Tum-2 were incubated with αvβ3 protein for 30 minutes, and added to C-PAE cells which were plated in 96-well plates and incubated overnight with growth media. After incubation for 48 hours, the cell number was determined by methylene blue staining.
Integrin αvβ3 was investigate for its ability to reverse the anti-proliferative affects of peptide T3. T3 peptide was incubated with 0, 0.001, 0.01, 0.1, 0.5, or 1.0 μg/ml αvβ3 integrin protein (CHEMICON Int'l, Temecula, Calif., USA) for 30 minutes at room temperature, and was then added, at 20 μg/ml final concentration, to C-PAE cells that had been grown in 96-well plates in growth media. After 48 hours of additional incubation, cell number was determined by the methylene blue assay. The results are shown in FIG. 43C, which is a histogram showing the growth of C-PAE cells (y-axis) when treated with T3 peptide that had been pre-incubated with varying concentrations (x-axis) of αvβ3 integrin.
Soluble αvβ3 integrin protein reversed the anti-proliferative effects of Tumstatin-44-131. This was shown by a competition proliferation assay as described above in Example 26. […] E. Coli-expressed Tumstatin-44-131 was then incubated with αvβ3 integrin protein for 30 minutes, and then added to C-PAE cells with 20% FCS. After 48 hours, cell proliferation was determined by methylene blue staining. The anti-proliferative affect of Tumstatin-44-131 was reversed dose-dependently with increasing concentrations of αvβ3 soluble protein.

HUVEC cells = assay: Cell adhesion assay with integrin blocking antibodies; assay type: cell-based, human; conditions: label = plate coating
Experimental: The attachment of HUVECs to Tumstatin-coated plates in the presence of integrin subunits α1 through α6, β1, and αvβ3 integrin blocking antibody was examined. This assay was performed according to the method of Senger et al. (Senger, D. R. et al, 1997, Proc. Natl. Acad. Sci. USA 94:13612-7), with minor modification. 96-well plates were coated with either human Tumstatin, mouse laminin-1, or human Type IV collagen (Collaborative Biomedical Prods., Bedford, Mass., USA) at a concentration of 10 μg/ml overnight at 37° C. Vitronectin (Collaborative Biomed. Prods.) at a concentration of 0.5 μg/ml was then used to coat the plates. The remaining protein binding sites were blocked with 100 mg/ml of BSA (Sigma Chemical Co., St. Louis, Mo., USA) in PBS for 2 hours. HUVEC cells were grown to subconfluence (70-80%) in EGM-2 medium, gently trypsinized and resuspended in serum-free medium (1.5×10^5 cells/ml). The cells were mixed with 10 μg/ml of either mouse IgG, (control) (Life Technologies/Gibco BRL, Gaithersberg, Md., USA) or antibody (mouse monoclonal antibody to the human β1 integrin (clone P4C10) (Life Technologies/Gibco BRL); monoclonal antibody to human integrins α1 through α.6 (CHEMICON Int'l, Temecula, Calif., USA); αvβ3 integrin (clone LM609) (CHEMICON Int'l) and incubated for 15 minutes at room temperature, with gentle agitation. One hundred microliters of the cell suspension was then added to each well and incubated for 45 minutes at 37° C. Unattached cells were removed by washing, and the number of attached cells were counted after staining with methylene blue. C-PAE cells were used in separate experiments, following the above procedure.
Cell Attachment Activity: Cell attachment using endothelial cells was performed as described above. HUVEC or C-PAE cells were incubated with monoclonal anti-human integrin antibodies, control mouse IgG (10 μg/ml), or synthetic peptide, plated onto pre-coated 96-well plates, and the number of cells attaching to the plates was determined using measurement of methylene blue staining at OD655. […] CNGRC peptide was used as a control.
The cell attachment assay was performed as described above.

T1 sequence (P06756 31-889 limits assumed): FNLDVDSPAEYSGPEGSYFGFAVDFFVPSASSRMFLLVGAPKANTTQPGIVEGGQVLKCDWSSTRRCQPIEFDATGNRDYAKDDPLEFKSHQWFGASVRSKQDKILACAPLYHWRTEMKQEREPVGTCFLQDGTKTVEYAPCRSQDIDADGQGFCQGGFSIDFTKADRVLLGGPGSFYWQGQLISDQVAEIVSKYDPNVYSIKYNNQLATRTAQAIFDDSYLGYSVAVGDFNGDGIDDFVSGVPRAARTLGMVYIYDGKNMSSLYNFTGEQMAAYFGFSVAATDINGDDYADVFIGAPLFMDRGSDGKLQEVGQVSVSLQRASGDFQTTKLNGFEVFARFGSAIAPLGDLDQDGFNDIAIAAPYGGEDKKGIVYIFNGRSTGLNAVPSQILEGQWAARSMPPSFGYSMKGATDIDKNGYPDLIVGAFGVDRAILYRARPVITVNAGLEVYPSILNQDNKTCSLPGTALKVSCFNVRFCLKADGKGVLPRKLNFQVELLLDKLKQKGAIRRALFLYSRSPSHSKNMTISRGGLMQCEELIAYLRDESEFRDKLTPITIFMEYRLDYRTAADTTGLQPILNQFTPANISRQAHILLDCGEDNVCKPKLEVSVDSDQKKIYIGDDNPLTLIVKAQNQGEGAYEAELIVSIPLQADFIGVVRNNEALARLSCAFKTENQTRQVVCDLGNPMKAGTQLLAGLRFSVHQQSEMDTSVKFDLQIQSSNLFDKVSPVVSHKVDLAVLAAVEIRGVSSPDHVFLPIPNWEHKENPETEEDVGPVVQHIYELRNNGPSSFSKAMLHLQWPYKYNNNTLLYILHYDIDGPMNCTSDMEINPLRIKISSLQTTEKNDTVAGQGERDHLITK
T1 sequence (P06756 891-1048 partner limits assumed): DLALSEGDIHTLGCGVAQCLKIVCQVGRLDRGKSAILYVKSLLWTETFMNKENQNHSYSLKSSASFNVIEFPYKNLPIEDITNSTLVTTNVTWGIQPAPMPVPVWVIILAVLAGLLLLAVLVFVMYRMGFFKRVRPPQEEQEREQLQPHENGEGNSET
T1 sequence (P05106 27-788): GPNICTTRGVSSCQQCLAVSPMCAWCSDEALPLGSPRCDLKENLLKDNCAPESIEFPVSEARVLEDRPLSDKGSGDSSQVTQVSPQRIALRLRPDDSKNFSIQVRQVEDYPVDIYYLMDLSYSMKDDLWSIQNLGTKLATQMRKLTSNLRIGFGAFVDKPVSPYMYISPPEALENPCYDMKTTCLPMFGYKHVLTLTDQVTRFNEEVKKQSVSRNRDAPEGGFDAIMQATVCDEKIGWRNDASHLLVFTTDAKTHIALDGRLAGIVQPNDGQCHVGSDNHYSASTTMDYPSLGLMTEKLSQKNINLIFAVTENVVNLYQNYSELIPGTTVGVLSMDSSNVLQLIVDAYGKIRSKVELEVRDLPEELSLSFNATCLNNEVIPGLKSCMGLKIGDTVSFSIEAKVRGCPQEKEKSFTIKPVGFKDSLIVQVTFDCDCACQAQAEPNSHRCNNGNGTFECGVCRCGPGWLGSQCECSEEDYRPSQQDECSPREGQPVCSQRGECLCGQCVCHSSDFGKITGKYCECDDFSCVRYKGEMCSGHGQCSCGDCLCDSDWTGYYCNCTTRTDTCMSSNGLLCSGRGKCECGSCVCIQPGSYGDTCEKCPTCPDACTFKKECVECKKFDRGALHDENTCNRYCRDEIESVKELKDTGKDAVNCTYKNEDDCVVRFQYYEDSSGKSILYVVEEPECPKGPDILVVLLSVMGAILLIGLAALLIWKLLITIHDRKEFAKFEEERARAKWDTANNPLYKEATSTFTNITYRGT

With GLKGKRGDSGSPATWTTRGF [T1] the “percentage of cells in S phase” value (C-PAE cells; bFGF 24 hours (control 22.1%), T1 or T6, maximal dosage of 100 μg/ml) was 22.3% and the “percentage of cells in G0/G1 phase” value (C-PAE cells) was 57.6%.

With LQRFTTMPFLFCNVNDVCNF [T3] the “percentage of cells in S phase” value (C-PAE cells; bFGF 24 hours (control 22.1%), 50 μg/ml) was 13.8%, the “percentage of cells in S phase” value (C-PAE cells; bFGF 24 hours, 10 μg/ml) was 21.4% and the “percentage of cells in S phase” value (C-PAE cells; bFGF 24 hours, 25 μg/ml) was 20.5%. For the same molecule, the “percentage of cells in G0/G1 phase” value (C-PAE cells) was 71.0% and the “anti-proliferative effect after pre-incubation with αvβ3 integrin protein” value (human αvβ3 protein; peptide 20 μg/ml) was “significantly decreased”.

B1: Tumstatin: NC1 domain of the α3 chain of type IV collagen, residues 1-244 (SEQ ID NO:10) (protein, listed as Homo sapiens)
chain: GLKGKRGDSGSPATWTTRGFVFTRHSQTTAIPSCPEGTVPLYSGFSFLFVQGNQRAHGQDLGTLGSCLQRFTTMPFLFCNVNDVCNFASRNDYSYWLSTPALMPMNMAPITGRALEPYISRCTVCEGPAIAIAVHSQTTDIPPCPHGWISLWKGFSFIMFTSAGSEGTGQALASPGSCLEEFRASPFLECHGRGTCNYYSNSYSFWLASLNPERMFRKPIPSTVKAGELEKIISRCQVCMKKRH
For B1, the “G1 (cell cycle arrest assay)” value (C-PAE cells) was 10 µg, the “inhibition of HUVEC attachment by antibody to subunits α1 through α4” value (HUVEC cells) was “did not block” and the “inhibition of HUVEC attachment by αvβ3 antibody and β1 antibody together” value (HUVEC cells) was 91%. The “inhibition of HUVEC attachment to coated plates by α5 antibody” value (HUVEC cells; 10 μg/ml antibody) was 20%, the “inhibition of HUVEC attachment to coated plates by α6 antibody” value (HUVEC cells; 10 μg/ml antibody) was 54% and the “inhibition of HUVEC attachment to coated plates by αvβ3 antibody” value (HUVEC cells; 10 μg/ml antibody) was 80%. For the same molecule, the “inhibition of HUVEC attachment to coated plates by β1 antibody” value (“inhibition … by β1 antibody” for short) (HUVEC cells; 10 μg/ml antibody) was 54% and the “reversal of anti-proliferative effect by soluble αvβ3 protein” value (human αvβ3 protein; αvβ3 at 2.4 μg/ml (3-fold molar excess), Tumstatin 0.1 μg/ml) was 43.1%.

B2: Tum-1: residues 54 to 244 of Tumstatin, lacking the N-terminal 53 amino acids (SEQ ID NO:22) (protein)
chain: QRAHGQDLGTLGSCLQRFTTMPFLFCNVNDVCNFASRNDYSYWLSTPALMPMNMAPITGRALEPYISRCTVCEGPAIAIAVHSQTTDIPPCPHGWISLWKGFSFIMFTSAGSEGTGQALASPGSCLEEFRASPFLECHGRGTCNYYSNSYSFWLASLNPERMFRKPIPSTVKAGELEKIISRCQVCMKKRH
modifications: Tum-1 (Tumstatin N-53) (amino acids 54-244 of SEQ ID NO10)
B2 was tested, and the “G1 (cell cycle arrest assay)” value (C-PAE cells) was 5 µg, the “inhibition of HUVEC attachment to coated plates by α6 antibody” value (HUVEC cells; 10 μg/ml antibody) was “did not” and the “inhibition of HUVEC attachment to coated plates by αvβ3 antibody” value (HUVEC cells; 10 μg/ml antibody) was “inhibited this adhesion”. For the same molecule, the “inhibition … by β1 antibody” value (HUVEC cells; 10 μg/ml antibody) was “inhibited this adhesion”.

B3: Tumstatin-44-131: residues 44 to 131 of full-length Tumstatin (SEQ ID NO:33) (protein)
chain: FSFLFVQGNQRAHGQDLGTLGSCLQRFTTMPFLFCNVNDVCNFASRNDYSYWLSTPALMPMNMAPITGRALEPYISRCTVCEGPAIAI
modifications: Tumstatin-45-132 (amino acids 45-132 of SEQ ID NO10)
In the case of B3, the “percentage of cells in S phase” value (C-PAE cells; 5% FCS 21 hours (control 21.5%), dose not given) is reported as 6.0%, the “percentage of cells in S phase” value (C-PAE cells; 5% FCS 21 hours, 1 μg/ml) is reported as 19.3% and the “percentage of cells in S phase” value (C-PAE cells; 5% FCS 21 hours, 10 μg/ml) is reported as 11.3%. The “G1 (cell cycle arrest assay)” value (C-PAE cells) was <5 µg, the “inhibition of HUVEC attachment to coated plates by αvβ3 antibody” value (HUVEC cells; 10 μg/ml antibody) was 47.1% and the “inhibition … by β1 antibody” value (HUVEC cells; 10 μg/ml antibody) was 47.5%. The “reversal of anti-proliferative effect by soluble αvβ3 protein” value (human αvβ3 protein; αvβ3 protein at 1 μg/ml, 20% FCS) was 65.9%.

B4: Tum-2: residues 1 to 132 of Tumstatin (SEQ ID NO:23) (protein)
chain: GLKGKRGDSGSPATWTTRGFVFTRHSQTTAIPSCPEGTVPLYSGFSFLFVQGNQRAHGQDLGTLGSCLQRFTTMPFLFCNVNDVCNFASRNDYSYWLSTPALMPMNMAPITGRALEPYISRCTVCEGPAIAI
modifications: Tum-2 (amino acids 1-132 of SEQ ID NO10)
For B4, the “recovery of anti-proliferative effect by soluble αvβ3 protein” value (human αvβ3 protein; 2 g/ml αvβ3 protein (so in the source)) was 74.1%.
